Source: patent publication US20190040375A1

Experiments:
[1] = biological target: gliadin-Rmep digest (mixed gliadins, 250 ug/ml, incubated with Rmep, 57 ug/ml); assay: G12 sandwich ELISA; gliadins 250 ug/ml with Rmep 57 ug/ml, 30 min
[2] = biological target: gliadin-Rmep digest (mixed gliadins, 250 ug/ml, incubated with Rmep, 57 ug/ml); assay: G12 sandwich ELISA; gliadins 250 ug/ml with Rmep 57 ug/ml, 2 h
[3] = biological target: gliadin-subtilisin A digest (mixed gliadins, 250 ug/ml, incubated with subtilisin A, 57 ug/ml); assay: G12 sandwich ELISA; gliadins 250 ug/ml with subtilisin A 57 ug/ml, 2 h
[4] = biological target: gliadin-subtilisin A digest (mixed gliadins, 250 ug/ml, incubated with subtilisin A, 57 ug/ml); assay: G12 sandwich ELISA; gliadins 250 ug/ml with subtilisin A 57 ug/ml, t=0 sample
[5] = biological target: gliadin-Rmep digest (mixed gliadins, 250 ug/ml, incubated with Rmep, 57 ug/ml); assay: R5 sandwich ELISA; gliadins 250 ug/ml with Rmep 57 ug/ml, t=0 sample
[6] = biological target: gliadin-subtilisin A digest (mixed gliadins, 250 ug/ml, incubated with subtilisin A, 57 ug/ml); assay: R5 sandwich ELISA; gliadins 250 ug/ml with subtilisin A 57 ug/ml, 15 min
[7] = biological target: gliadin-subtilisin A digest (mixed gliadins, 250 ug/ml, incubated with subtilisin A, 57 ug/ml); assay: R5 sandwich ELISA; gliadins 250 ug/ml with subtilisin A 57 ug/ml, t=0 sample

decrease in antibody binding [1] [%] | decrease in antibody binding [2] [%] | degradation of G12 epitopes (ELISA) [3] [%] | degradation of G12 epitopes (ELISA) [4] [%] | reduction in antibody binding compared to the control [5] [%] | elimination of R5 epitopes (ELISA) [6] [%] | elimination of R5 epitopes (ELISA) [7] [%] | Substance
65 | 85 | 45 | 22 |  |  |  | G12 monoclonal antibody (AgraQuant ELISA Gluten G12, Romer labs)
 |  |  |  | 46 | 100 | 90 | R5 monoclonal antibody (… Gliadin, R-Biopharm)
